Assays:
Histone H4 = Histone H4 (UniProt P62805)
Histone H3.3 = Histone H3.3 (UniProt P84243)
Histone H3.1 = Histone H3.1 (UniProt P68431)

Q: For wild type SIRT6 polypeptide (sirtuin 6), which “histone acetylation PTM profile by LC-MS/MS in 3T3-L1 adipocytes” value (Histone H4) is on record?
A: Overexpression of SIR6 wt or SIRT6cent in 3T3-L1 led to changes in the acetylation profiles of histones H3.1, H3.2 and H4

Q: What about the “histone acetylation/methylation PTM profile by LC-MS/MS in 3T3-L1 adipocytes” value (Histone H3.3) of the same substance?
A: significant difference between AdiWT and AdiCent at the levels of lysines (K) ... K27, K36 and K37 in H3.3

Q: And the “histone acetylation/methylation PTM profile by LC-MS/MS in 3T3-L1 adipocytes” value (Histone H3.1)?
A: Overexpression of SIR6 wt or SIRT6cent in 3T3-L1 led to changes in the acetylation profiles of histones H3.1, H3.2 and H4

— patent publication US20260199524
